According to PMC7915732 (2021):
Bridge positions count the residues as written; N and C are the ends. Ends that are not written are not given here.

Columns and labels:
cyclo[E-LYLAYPAH-K] [1] = molecular target: T1, cyclo[E-LYLAYPAH-K] (synthetic construct, lactam 1-10); experiment: resin adsorption isotherm
T1 chain: ELYLAYPAHK

cyclo[E-LYLAYPAH-K] [2] = molecular target: T2, cyclo[E-LYLAYPAH-K] (synthetic construct, lactam 1-10); experiment: yeast surface titration
T2 chain: ELYLAYPAHK

B1: YAP WW domains 165-271 (protein)
chain: FEIPDDVPLPAGWEMAKTSSGQRYFLNHIDQTTTWQDPRKAMLSQMNVTAPTSPPVQQNMMNSASGPLPDGWEQAMTQDGEIYYINHKNKTTSWLDPRLDPRFAMNQ
Kd (cyclo[E-LYLAYPAH-K] [1]): 2640 nM | Kd (cyclo[E-LYLAYPAH-K] [2]): 680 nM
